The results in this text go back to patent publication US20150210761A1 (SAMSUNG ELECTRONICS, published 2015).

In test [1] the target is T1, Ang2 mutant K468 (full-length Ang2) (human, UniProt O15123 19-496, limits assumed).
T1 sequence: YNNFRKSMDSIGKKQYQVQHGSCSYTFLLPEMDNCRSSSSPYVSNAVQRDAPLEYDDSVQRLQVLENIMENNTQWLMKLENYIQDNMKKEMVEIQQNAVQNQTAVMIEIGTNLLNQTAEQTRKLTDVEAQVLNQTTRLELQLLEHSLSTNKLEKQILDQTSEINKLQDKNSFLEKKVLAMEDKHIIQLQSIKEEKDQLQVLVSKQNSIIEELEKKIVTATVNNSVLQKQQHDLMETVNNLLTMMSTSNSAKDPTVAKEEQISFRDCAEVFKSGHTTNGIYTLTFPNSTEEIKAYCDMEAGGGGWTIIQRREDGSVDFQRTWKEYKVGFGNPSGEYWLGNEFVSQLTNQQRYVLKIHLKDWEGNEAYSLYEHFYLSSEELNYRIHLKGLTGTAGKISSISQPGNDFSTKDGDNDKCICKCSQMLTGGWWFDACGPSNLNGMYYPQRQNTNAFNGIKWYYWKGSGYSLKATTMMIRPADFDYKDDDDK
Description: ELISA; antibody coated, FLAG-tagged full-length Ang2 mutant, anti-FLAG-HRP detection. The method, then: (§1) A 96-well MaxiSorp™ flat-bottom plate (Nunc) was coated with 50 μl of each anti-Ang2 antibody (400 nM). After that, the plate was washed five times with 0.05% (v/v) Tween-20-containing PBS (PBST) and then blocked with 1% (v/v) BSA-containing PBS at a room temperature for 2 hours. S417, P419, N421, I434, D448, A449, P452, Y460, N467, K468, or F469 residue of Ang2 (SEQ ID NO: 27) was mutated (substituted) with alanine and tagged with FLAG (N-[…]-C; 1012 Da) and then 250 ng of them was each added to each well to the plate, which was allowed to react at a room temperature for 2 hours.
(§2) Thereafter, the plate was washed five times with 0.05% (v/v) Tween-20-containing PBS and then, an HRP-conjugated anti-FLAG antibody (SIGMA) diluted in 1% (v/v) BSA-containing PBS at 1:5,000 ratio (v/v) was added in the amount of 50 μl to each well to react at a room temperature for 1 hour, followed by washing five times with 0.1% (v/v) Tween-20-containing PBS.
(§3) Finally, 100 μl of TMB substrate (cell signal) was added to each well of the plate to induce color development for 3 minutes and then, the reaction was ceased by the addition of 100 μl of stop solution (Cell signaling) and OD450 values were measured on a plate reader (Molecular Devices). By comparing binding intensity to mutated Ang2 to binding intensity to non-mutated (native) Ang2, each epitope for the Ang2 antibodies was identified.

In test [2] the target is T2, Ang2 mutant I434 (full-length Ang2) (human, UniProt O15123 19-496, limits assumed).
T2 sequence: T1 sequence with I416A, A450K
Described as above. Here is the method:
as §1, §2, §3

Test [3] has as its target T3, mouse Ang2 (Accession # NP-031452) (R&D Systems) (mouse, UniProt O35608 19-496).
T3 construct: Bought protein coated on the ELISA plate; also called mAng2
T3 sequence (looked up): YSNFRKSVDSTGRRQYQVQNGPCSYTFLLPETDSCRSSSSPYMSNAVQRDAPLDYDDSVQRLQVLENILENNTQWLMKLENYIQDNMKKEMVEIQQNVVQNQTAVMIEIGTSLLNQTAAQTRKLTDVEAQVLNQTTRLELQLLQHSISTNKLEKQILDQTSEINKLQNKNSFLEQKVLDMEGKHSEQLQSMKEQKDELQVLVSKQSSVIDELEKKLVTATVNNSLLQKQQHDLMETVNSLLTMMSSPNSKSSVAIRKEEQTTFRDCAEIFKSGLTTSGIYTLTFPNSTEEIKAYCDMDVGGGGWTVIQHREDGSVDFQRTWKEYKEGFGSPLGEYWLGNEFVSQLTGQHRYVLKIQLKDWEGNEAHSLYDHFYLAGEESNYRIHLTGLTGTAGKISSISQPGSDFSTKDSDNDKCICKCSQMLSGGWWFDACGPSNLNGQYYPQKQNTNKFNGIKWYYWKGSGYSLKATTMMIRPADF
Description: ELISA on coated mouse Ang2; 50% binding concentration, which the filing calls Kd. Here is the method: An ELISA was conducted to measure the binding affinity of the antibodies prepared in Example 2 to mouse Ang2(mAng2). MaxiSorp™ flat-bottom plate (Nunc) of 96-well was coated with 5-20 μg/ml of mouse Ang2 (Mouse Ang2; Accession # NP_{—}031452) (R&D Systems). Thereafter, the plate was washed five times with 0.05% (v/v) Tween-20-containing PBS (PBST) and then blocked with 1% (v/v) BSA (bovine serum albumin; Sigma)-containing PBS at a room temperature for 2 hour. Each of the anti-Ang2 antibodies was added to each well of the plate at various concentrations, and the plate was allowed to react at a room temperature for 2 hours.
Thereafter, the plate was washed five times with PBST. Then, a HRP-conjugated anti-mouse IgG antibody (Santacruz) diluted in 1% (v/v) BSA-containing PBS at a ratio of 1:1,000 (v/v) was added in an amount of 50 μl to each well to react at a room temperature for 1 hour and then, the plate was washed five times with PBST. Lastly, 100 μl of TMB substrate (Cell Signaling) was added to each well of the plate to induce color development for 3 min. and then, the reaction was ceased by the addition of 100 μl of Stop solution (Cell Signaling) and OD450 values were measured on a plate reader (Molecular Devices).
From the obtained results, 50% binding concentration (Kd) of the anti-Ang2 antibody to Ang2 protein is obtained, thereby measuring the binding intensity of each of the anti-Ang2 antibodies to Ang2.

Numbering of substitutions follows the chain as printed.

B1: SAIT-ANG2-AB-m8D3 (antibody, V domains shown)
VH: EVQLQQSGPELVKPGDSVKMSCKASGYTFTDYYMKWVRQSHGKSLQWVGEINPKNGDTFYNQIFKGKATLTVDKSSSTAYMQLTSLTSEDSAVYYCTRENDYDVGFFDYWGQGTSVTVSS
VL: TIVMTQTPKFLLVSAGDRITITCKASQSVSNDVAWYQQKPGQSPKLLIYYASNRYPGVPDRFTGSGYGTDFTFTISTVQAEDLAVYFCQQDYTSPWTFGGGTELEIK
notes: also called hybridoma KCLRF-BP-00308
In the case of B1, the entries for the “Binding (%) (mutant Ang2 / native Ang2)” value in test [1] and in test [2] were 20.5% and 137%, respectively. In test [3], this molecule displayed an equilibrium dissociation constant (Kd) of 141 nM.

B2: SAIT-ANG2-AB-m3E2 (antibody, V domains shown)
VH: EVQLQQSGAELVKPGASVKLSCTASGFNIKDPYIHWVKQRPEQGLEWIGRIDPANGNTKYDPKFQGKATITADTSSNTAYLQLSSLTSEDTAVYYCVRRWDGGGFDYWGQGTSVTVSS
VL: DIQMTQTTSSLSASLGDRVTISCRASQDISNYLNWYQQKPDGTVKLLIYYTSRLHSGVPSRFSGSGSGTDYSLTITNLEQEDIATYFCQQGNTLPWTFGGGTKLEIK
notes: also called hybridoma KCLRF-BP-00305
In test [3], B2 gave a Kd of 130 nM. This counts as sub-micromolar.
